Results published in patent US20240383964A1, “De Novo Designed alpha(5) beta(1) Integrin selective minibinders” (UNIVERSITY OF WASHINGTON, priority 2023, published 2024).
Values belong to the molecule of their own block, whether it stands above or below them. The star is where a group is joined. Biotin = O=C1N[C@H]2[C@H](CS[C@H]2CCCCC(=O)*)N1

What was measured:
HUVECs = assay: Scratch-wound cell migration assay; assay type: cell-based, human; settings: 20 nM, 12 hours, compared to PBS control
Protocol: FIG. 2. (A) BLI binding affinity traces for minibinder or ^8RGD^10/GGG mutant against α5β1 in indicated buffers. Minibinder affinity to integrin α5β1 is dependent on metal ion presence and RGD motif. All affinity data was collected by Octet™ R8 and binding affinity was estimated by the Octet™ ForteBio software package. (B) Minibinder has no detectable affinity in presence of 500 nM or 1000 nM integrin αvβ1, αvβ3, αvβ6, αvβ8 and α8β1. (C) Cell surface titration of minibinder 4584_V5.3 and 00179_v4.1 against K562 cells wild type. […] Integrin α5 subunit and β1 subunit were stained with integrin α5 and active integrin β1 subunit specific antibody, respectively. (E) Quantification of (D). Quantification was counted as a percentage of mb-sheets that colocalized with staining of a5 and b1, a5 only, b1 only, or none; 30-35 sheets were counted in each biological repeat. […] Minibinders were added to HUVEC cells at 0, 0.1, 1, 10, and 100 nM. Vascular stability was analyzed at 12-h timepoints. 20 images were taken in each well at random locations. The scale bar is 100 μm. (G) Quantification of (F). The number of nodes, meshes, and tubes from images in (F) were quantified using an angiogenesis analyzer plug-in in ImageJ. Statistical significance of each were analyzed using One-way Anova Bonferroni's multiple comparison test. […] The wound area of T0 and T12 time points were quantified using imageJ and level of cell migration were calculated using this equation (AreaT0-T12)/AreaT0, all samples were normalized to PBS as fold change.
The inhibitory effect of 20 nM soluble 00179_v4.1 on cell migration was assessed using the scratch-wound assay. HUVECs were seeded with either 00179_v4.1 or PBS (used as a […] control) for 12 hours before capturing images for analysis.

integrin α5β1 [1] = biological target: T1, integrin α5β1 (UniProt P08648 42-995; P05556 21-728); assay: BLI, integrin resting buffer (1 mM MgCl2, 1 mM CaCl2, pH 7.4), binder immobilised; BLI, integrin resting buffer pH 7.4 with 1 mM MgCl2, 1 mM CaCl2
T1 construct: also called alpha(5) beta(1) integrin; a5b1
T1 sequence (P08648 42-995, chain 1 of 2): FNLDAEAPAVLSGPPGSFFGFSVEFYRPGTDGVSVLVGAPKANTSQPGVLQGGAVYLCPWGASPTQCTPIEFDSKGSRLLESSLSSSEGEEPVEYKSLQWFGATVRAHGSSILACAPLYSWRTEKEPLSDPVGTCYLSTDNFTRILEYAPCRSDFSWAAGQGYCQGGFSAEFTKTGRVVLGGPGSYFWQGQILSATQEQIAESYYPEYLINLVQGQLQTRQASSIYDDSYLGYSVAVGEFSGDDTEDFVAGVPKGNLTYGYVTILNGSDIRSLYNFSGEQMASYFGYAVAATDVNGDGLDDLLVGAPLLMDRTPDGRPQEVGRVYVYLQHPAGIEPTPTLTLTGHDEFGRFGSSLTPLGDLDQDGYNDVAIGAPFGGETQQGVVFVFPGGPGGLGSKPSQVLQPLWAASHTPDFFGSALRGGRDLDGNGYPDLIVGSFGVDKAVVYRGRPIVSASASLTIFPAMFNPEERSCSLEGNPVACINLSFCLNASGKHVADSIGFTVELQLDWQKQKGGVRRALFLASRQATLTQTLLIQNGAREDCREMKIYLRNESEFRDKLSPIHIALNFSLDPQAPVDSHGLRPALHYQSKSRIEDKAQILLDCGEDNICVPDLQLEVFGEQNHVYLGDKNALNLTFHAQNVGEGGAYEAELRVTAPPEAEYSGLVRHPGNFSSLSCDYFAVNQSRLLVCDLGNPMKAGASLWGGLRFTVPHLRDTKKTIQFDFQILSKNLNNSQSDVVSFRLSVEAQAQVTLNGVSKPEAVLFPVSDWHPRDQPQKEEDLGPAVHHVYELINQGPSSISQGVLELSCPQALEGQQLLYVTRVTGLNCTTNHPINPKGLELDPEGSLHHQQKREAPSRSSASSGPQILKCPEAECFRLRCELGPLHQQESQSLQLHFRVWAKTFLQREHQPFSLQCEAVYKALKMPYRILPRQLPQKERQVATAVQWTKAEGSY
T1 sequence (P05556 21-728, chain 2 of 2): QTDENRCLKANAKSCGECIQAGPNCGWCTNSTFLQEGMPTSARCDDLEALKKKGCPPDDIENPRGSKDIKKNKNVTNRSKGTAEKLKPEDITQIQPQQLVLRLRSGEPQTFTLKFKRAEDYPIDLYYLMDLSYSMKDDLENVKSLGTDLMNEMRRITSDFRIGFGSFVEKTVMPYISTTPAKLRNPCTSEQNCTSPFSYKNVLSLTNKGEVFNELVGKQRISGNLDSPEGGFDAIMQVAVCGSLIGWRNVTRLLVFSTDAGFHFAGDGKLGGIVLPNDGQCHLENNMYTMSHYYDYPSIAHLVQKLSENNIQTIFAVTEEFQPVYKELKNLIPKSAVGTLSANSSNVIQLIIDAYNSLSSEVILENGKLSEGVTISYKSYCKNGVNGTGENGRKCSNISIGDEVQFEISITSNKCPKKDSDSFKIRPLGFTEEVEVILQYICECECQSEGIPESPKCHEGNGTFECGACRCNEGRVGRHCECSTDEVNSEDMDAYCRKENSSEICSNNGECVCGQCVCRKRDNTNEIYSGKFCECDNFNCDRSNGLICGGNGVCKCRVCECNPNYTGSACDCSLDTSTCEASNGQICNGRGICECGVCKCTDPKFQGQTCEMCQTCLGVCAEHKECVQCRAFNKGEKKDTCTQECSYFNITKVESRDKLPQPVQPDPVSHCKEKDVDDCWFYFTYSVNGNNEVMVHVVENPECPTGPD
Protocol: (§1) The binding affinity of each variant was calculated as described in Cao et al, 2022. By combining the beneficial mutations, combination libraries were constructed and screened for binding to α5β1 at an affinity as low as 200 pico-molar (FIG. 4). […] Because RGD binding depends on metal ions, the binders were tested for binding to integrin without metal ions. […] Similarly, mutating the RGD motif to GGG also abolished the binding ability. […] This is surprising, and provides a tool to track integrin α5β1 in endosome and lysosome.
(§2) Prior to measurements, streptavidin-coated biosensors were first equilibrated for at least 10 min in assay buffer. Protein binders with an N-terminal biotin were immobilized onto the biosensors by dipping them into a solution with 100 nM protein until the response reached between 10% and 50% of the maximum value followed by dipping sensors into fresh buffer to establish a baseline for 120 s. Titration experiments were performed at 25 degrees Celsius while rotating at 1000 rpm. Association of integrins was allowed by dipping biosensors in solutions containing designed protein diluted in buffer until equilibrium was approached followed by dissociation by dipping the biosensors into fresh buffer solution to monitor the dissociation kinetics.

[2] = biological target: T2, integrin α5β1 on the cell surface (UniProt P08648 42-1049; P05556 21-798); assay: cell surface titration on wild type K562 cells, readout Binder Bound Cells (%)
T2 construct: whole, on cells; HUVECs in the functional assays; also called α5β1 on wild type K562 (printed also A562) cells; α5β1 on HUVECs
T2 sequence (P08648 42-1049, chain 1 of 2): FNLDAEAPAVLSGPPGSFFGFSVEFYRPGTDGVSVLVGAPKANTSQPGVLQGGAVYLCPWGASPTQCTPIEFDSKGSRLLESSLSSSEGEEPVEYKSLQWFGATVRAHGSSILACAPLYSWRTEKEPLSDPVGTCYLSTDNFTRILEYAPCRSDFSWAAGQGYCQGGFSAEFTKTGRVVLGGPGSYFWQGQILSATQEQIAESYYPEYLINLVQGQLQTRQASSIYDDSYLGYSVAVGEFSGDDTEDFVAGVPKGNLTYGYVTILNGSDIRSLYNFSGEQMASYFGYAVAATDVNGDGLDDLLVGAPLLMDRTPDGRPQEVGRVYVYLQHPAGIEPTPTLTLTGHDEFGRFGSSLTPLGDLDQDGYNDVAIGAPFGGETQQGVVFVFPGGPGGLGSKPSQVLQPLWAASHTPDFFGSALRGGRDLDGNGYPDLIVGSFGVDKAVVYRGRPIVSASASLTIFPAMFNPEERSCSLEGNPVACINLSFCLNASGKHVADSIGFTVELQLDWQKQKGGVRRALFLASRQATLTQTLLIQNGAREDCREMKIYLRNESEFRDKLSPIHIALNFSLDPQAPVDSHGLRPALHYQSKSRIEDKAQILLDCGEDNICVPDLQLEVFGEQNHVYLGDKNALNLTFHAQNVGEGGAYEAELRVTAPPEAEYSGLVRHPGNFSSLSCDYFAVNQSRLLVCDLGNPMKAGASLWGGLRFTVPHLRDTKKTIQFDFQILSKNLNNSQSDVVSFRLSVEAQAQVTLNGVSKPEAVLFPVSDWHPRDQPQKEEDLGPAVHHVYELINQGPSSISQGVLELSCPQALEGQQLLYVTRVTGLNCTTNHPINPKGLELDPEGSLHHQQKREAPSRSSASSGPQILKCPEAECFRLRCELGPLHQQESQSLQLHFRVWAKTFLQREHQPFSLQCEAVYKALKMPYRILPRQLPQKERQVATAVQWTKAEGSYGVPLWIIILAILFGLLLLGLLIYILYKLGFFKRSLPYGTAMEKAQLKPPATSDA
T2 sequence (P05556 21-798, chain 2 of 2): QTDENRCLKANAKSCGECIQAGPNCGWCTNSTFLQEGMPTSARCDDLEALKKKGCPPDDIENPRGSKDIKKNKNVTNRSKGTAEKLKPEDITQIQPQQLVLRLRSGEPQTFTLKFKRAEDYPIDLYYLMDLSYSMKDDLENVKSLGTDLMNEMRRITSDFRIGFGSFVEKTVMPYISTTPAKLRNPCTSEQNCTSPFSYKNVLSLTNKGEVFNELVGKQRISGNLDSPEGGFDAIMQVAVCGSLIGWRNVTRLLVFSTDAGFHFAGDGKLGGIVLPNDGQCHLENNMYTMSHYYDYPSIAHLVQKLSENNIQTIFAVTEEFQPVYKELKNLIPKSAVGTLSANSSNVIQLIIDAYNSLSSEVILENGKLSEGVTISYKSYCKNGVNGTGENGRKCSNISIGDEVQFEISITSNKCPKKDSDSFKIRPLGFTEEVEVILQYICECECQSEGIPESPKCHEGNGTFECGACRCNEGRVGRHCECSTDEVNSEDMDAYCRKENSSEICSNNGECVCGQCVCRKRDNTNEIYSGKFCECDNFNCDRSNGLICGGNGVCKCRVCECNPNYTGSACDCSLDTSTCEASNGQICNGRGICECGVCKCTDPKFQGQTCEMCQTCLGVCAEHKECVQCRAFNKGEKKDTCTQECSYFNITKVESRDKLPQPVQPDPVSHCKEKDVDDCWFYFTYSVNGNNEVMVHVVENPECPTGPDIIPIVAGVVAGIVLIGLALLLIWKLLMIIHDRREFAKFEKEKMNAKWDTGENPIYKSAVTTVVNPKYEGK

integrin α5β1 [3] = biological target: T1, integrin α5β1; assay: BLI (Octet), minibinder on the sensor, integrin α5β1 in solution at labelled concentrations up to 200 nM; buffer 1 mM Ca2+, 1 mM Mg2+, pH 5 [lower left panel]
Protocol: as §1, §2

integrin α8β1 = biological target: T3, integrin α8β1 (UniProt P53708 39-1012; P05556 21-728); assay: BLI (Octet), minibinder on the sensor, integrin α8β1 in solution [panel α8β1]
T3 construct: also called a8b1
Protocol: (§3) Because of the large size of integrin and the distribution of integrin α5β1 on the cell surface, it was of interest to measure the affinity of the binders on the cell surface. Using wild type A562, the binding affinity of binders to α5β1 was measured, which is the only RGD binding integrin expressed in WT A562.
as §2, with “kinetics. In the minibinder binding cross specificity assays each biotinylated minibinder was loaded onto streptavidin biosensors in equal amounts followed by 2 min of baseline equilibration. The association and dissociation with all the different binders were allowed for 900-1500 s for each step. […]” for “kinetics.”

integrin αvβ8 = biological target: T4, integrin αvβ8 (UniProt P06756 31-992; P26012 43-684); assay: BLI (Octet), minibinder on the sensor, integrin αvβ8 in solution [panel αvβ8]
T4 construct: also called avb8
T4 sequence (P06756 31-992, chain 1 of 2): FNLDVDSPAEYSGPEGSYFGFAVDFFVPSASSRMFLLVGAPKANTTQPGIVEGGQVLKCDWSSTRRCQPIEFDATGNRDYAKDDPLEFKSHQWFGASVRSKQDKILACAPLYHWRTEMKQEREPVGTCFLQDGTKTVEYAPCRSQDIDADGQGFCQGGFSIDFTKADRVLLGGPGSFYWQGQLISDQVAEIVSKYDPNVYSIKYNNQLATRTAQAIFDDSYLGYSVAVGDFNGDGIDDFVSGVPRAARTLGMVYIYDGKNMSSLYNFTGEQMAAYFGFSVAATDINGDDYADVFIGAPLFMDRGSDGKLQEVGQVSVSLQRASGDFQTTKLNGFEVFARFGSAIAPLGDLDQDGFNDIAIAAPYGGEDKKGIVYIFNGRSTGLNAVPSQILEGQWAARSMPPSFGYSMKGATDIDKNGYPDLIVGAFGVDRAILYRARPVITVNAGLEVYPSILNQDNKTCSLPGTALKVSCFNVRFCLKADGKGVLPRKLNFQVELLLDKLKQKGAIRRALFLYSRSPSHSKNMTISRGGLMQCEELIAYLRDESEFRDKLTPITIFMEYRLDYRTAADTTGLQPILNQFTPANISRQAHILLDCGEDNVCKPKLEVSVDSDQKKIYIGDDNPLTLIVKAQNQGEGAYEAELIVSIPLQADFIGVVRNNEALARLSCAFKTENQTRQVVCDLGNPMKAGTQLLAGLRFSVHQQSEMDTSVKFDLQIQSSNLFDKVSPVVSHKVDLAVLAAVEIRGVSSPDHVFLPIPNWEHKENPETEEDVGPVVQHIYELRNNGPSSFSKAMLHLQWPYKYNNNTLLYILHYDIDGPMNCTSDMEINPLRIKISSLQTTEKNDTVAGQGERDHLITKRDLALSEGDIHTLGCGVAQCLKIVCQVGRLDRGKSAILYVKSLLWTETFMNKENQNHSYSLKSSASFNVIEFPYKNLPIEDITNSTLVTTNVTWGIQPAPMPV
T4 sequence (P26012 43-684, chain 2 of 2): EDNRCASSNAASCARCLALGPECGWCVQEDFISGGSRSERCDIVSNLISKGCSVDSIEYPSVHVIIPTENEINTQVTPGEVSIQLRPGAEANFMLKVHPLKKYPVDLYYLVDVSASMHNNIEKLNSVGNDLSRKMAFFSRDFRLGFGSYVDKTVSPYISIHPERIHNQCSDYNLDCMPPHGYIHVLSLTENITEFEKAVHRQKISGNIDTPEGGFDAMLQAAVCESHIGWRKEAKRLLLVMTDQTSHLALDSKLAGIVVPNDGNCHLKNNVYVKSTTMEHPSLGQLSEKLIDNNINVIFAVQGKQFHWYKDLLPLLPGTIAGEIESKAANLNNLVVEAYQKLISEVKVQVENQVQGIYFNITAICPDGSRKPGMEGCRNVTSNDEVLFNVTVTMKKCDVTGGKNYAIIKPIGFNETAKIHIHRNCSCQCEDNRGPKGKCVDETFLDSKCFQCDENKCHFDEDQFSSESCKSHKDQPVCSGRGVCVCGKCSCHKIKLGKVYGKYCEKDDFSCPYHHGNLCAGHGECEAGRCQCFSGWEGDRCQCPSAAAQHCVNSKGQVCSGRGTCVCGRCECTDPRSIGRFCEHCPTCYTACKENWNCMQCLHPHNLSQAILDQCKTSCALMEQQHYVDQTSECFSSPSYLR
Protocol: as §3
as §2, with “kinetics. In the minibinder binding cross specificity assays each biotinylated minibinder was loaded onto streptavidin biosensors in equal amounts followed by 2 min of baseline equilibration. The association and dissociation with all the different binders were allowed for 900-1500 s for each step. […]” for “kinetics.”

integrin αvβ3 = biological target: T5, integrin αvβ3 (UniProt P06756 31-992; P05106 27-718); assay: BLI (Octet), minibinder on the sensor, integrin αvβ3 in solution [panel αvβ3]
T5 construct: also called avb3
Protocol: as §3
as §2, with “kinetics. In the minibinder binding cross specificity assays each biotinylated minibinder was loaded onto streptavidin biosensors in equal amounts followed by 2 min of baseline equilibration. The association and dissociation with all the different binders were allowed for 900-1500 s for each step. […]” for “kinetics.”

integrin αvβ1 = biological target: T6, integrin αvβ1 (UniProt P06756 31-992; P05556 21-728); assay: BLI (Octet), minibinder on the sensor, integrin αvβ1 in solution [panel αvβ1]
T6 construct: also called avb1
Protocol: as §3
as §2, with “kinetics. In the minibinder binding cross specificity assays each biotinylated minibinder was loaded onto streptavidin biosensors in equal amounts followed by 2 min of baseline equilibration. The association and dissociation with all the different binders were allowed for 900-1500 s for each step. […]” for “kinetics.”

integrin α5β1 [4] = biological target: T1, integrin α5β1; assay: BLI (Octet), 00179_v4.1 RGD→GGG on the sensor, integrin α5β1 in solution; 1 mM Ca2+, 1 mM Mg2+, pH 7.4 [lower right panel]
Protocol: as §1, §2

B1: C6-mb: hexamer formed by mixing 00179_v4.1_N-term-LHD101A (SEQ ID NO:16) and C6-71-9-1_101B (SEQ ID NO:17) at 6:1 ratio (protein)
chain 1: MSGRQEKVLKSIEETVRKMGVTMETHRSGNEVKVVIKGLHIKQQRQLYRDVRETSKKQGVETEIEVEGDTVTIVVREGGSGGSELIIHGRGDFPRSELERLRERFERLGIKVRVDHKVLTLIGISEEEAERLARELRKRGIWVEIRKGSGSHHWGSTHHHHHH
chain 2: MGRQEKVLKSIEETVRKMGVTMETHRSGNEVKVVIKGLHESQQEQLLEDVLRTAEKQGVRVRIRFKGDTVTIVVREGSPEEILERAKESLERAKEAFERGDEEEFRKAAEKALELAKRLVEQAKKEGDPELVFEAARVALWVAWLAAWFGDKEVFKKAAESALEVAKRLVEVAKEEGDPELVLKAAFVALLVAIMAVILGDKEVFKKAAESALEVAKRLVEIAAREGDPELVEEAAKVAELVRELAKLMGDEEVYEKARETAREVRLFLLFVRIWEGGGGSLEHHHHHH
modifications: 6:1 hexameric assembly; VARIANT 1 optionally absent; VARIANT 148..163 optionally absent; VARIANT 282..289 optionally absent
- cell migration (HUVECs): even more pronounced inhibition of cell migration
- cell migration (HUVECs; listed as C6-oligomer): inhibits cell migration

B2: xw_a5b1_00179_v4.1 (designed binder)
chain: SELIIHGRGDFPSSELERLRERFERLGIKVRVDHKVLTLIGISEEEAERLARELRKRGIWVEIRK
modifications: also: N-terminal avi-tag/biotin for BLI, His6 tag at N- or C-terminus, tag sequences not given here
notes: a His6 tag stood at the N- or C-terminus
- Kd (integrin α5β1 [1]): 0.3 nM
- EC50 (read off the curve) [2]: ~2 nM
- Kd (integrin α5β1 [3]): 40 nM
- binding result (integrin α8β1): no binding (tested: 500 nM)
- binding result (integrin αvβ8): no binding (tested: 500 nM)
- binding result (integrin αvβ3): no binding (tested: 500 nM)
- binding result (integrin αvβ1): no binding (tested: 500 nM)

Now from value to molecule:

- binding result (integrin α5β1 [4]): no binding (tested: 1000 nM)
B3: 8RGD10/GGG mutant of minibinder 00179_v4.1 (designed binder)
chain: Biotin-SELIIHGGGGFPSSELERLRERFERLGIKVRVDHKVLTLIGISEEEAERLARELRKRGIWVEIRK
notes: also called RGD/GGG mutant

- binding result [2]: binds
B4: xw_a5b1_004584v5.3 (designed binder)
chain: GEVEVHGRGDIPRSSLELFEKVAKELGLKVERNHRTVTVKGVSEEQIRELEEVAKKLGLWVLVRVTE
notes: Tags of the construct as assayed are not specified
